Source: the nanobody polyreactivity screen of Harvey et al. (2022)

Assay: yeast display, Sf9 membrane polyspecificity reagent, FACS + sequencing; frameworks hold sequencing errors
Outline: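 Synthetic nanobody libraries on Saccharomyces cerevisiae BJ5465 were galactose-induced for 36–48 hours, stained 1 hour at 4 °C with 10% biotinylated, detergent-solubilized Sf9 membrane reagent and enriched on streptavidin microbeads. FACS then separated cells into low and high (top ~1%) gates by anti-HA (expression) and streptavidin (reagent binding) fluorescence. Genes were colony-PCR amplified, MiSeq 2 × 250 sequenced and CDR-length filtered. A clone's polyreactivity label is that of its gate of origin.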

Sequence | polyreactivity (PSR sort gate)
KVQLVESGGGLVQAGGSLRLSCAASGRIFLPYAMGWYRQAPGKEREFVAAITWGAGTTYYADSVKGRFTISRDNAKNTVYLQMNSLKPEDTAVYYCAAEYRVLSWTYGYWGQGTQVTVSS | high polyreactivity
QVQLVESGGGLVQAGGSLRLSCAASGRTFRYYAMGWYRQAPGKERELVAAIDTSSGSTYYADSVKGRFTISRDNAKNTVYLQMNSLKPEDTAVYYCNATWWIPLIYDYWGQGTQVNVSS | low polyreactivity
QVQLVESGGGLVQAGGSLRLSCAASGRIFRYYAMGWYRQAPGKERELVAAITSDGRTYYADSVKGRFTISRDNAKNTVYLQMNSLKPEDTAVYYCAADHHSYRYGGYYYWGQGTQVTVSS | low polyreactivity
QVQLVESGGGLVQAGGSLRLSCAASGFIIDRNAMGWYRQAAGKERELVAAITSRGGSTYYADSVKGRFTISRDNAKNTVYLQMNSLKPEDTAVYYCNAGRRVSTYGYWGPGTQVTVSS | high polyreactivity
QVQLVESGGGLVQAGGSLRVSCADSGNILYLYAMGWYREAPGKERELVAAISGNGGRTYYADSVKGRFTISRDNAKNTVYLQMNSLKPEDTAVYDCAADYAGRRFWYYHGLDSWGQGTQVTVSA | high polyreactivity
QVQLVESRGGLVQAGGSLRLSCAASGFIFGYYALGWYRQAPGKEWELVAAITNGGRTYYADSVKGRFTISRDNAKNTVYLQMISLKPEDTAVYYCAARPSWWSALFDSWGQGTQVTVSS | low polyreactivity
QVQLVESVGGLVQAGGSLRLSCAASGRIFPYYAMGWYIQAPGKERELVATITWRGGITYYADSVKGRFTISRDNAKNTVYLQMNSLKPEDTSVYYCAVRKVYRSSFDYWGQGTQVTVSS | high polyreactivity
QVQLVESGGGIVQAGGSLRLSCAASGGIFDSYAMGWYRQAPGKERELVADITSGGSTNYADSVKGRFTISRDNAKNTVYLQMNSLKPEDTAVYYCAKEFYYSVGVNLGDSWGQGIQVTVSS | low polyreactivity
QVQLVESGGGLVQAGGSLRLTCAASGITFCIYVMGWYRQAPGKEREVVATISRSDDNTYYADSVKGRFTISRDNAKNTVYLQMYCLKPEDTAVYYCAADGVISAWYSSRDDYWGQGTQVTVSS | low polyreactivity
QLQLEESAGGLVQAGGSLRLSCAASGSIFGPYAMGSYSQAPGKERELVAAITWSGDSTYYADSVKGRFTISRDNAKNTVYLQMNSLKPEDTAVSYCNADWGQGTQVTVSS | low polyreactivity
QVQLVESGGGLVQAGGSLRLSCAASGRIFNRYAMGLYSQAPGKERELVAAISYTGGRTYYADSVKGRFTISRDNAKNTVYLQRNCLTPEDTAVYYCNVYVIHWDFTTSSVRRFDYWGQGTQVNVSS | high polyreactivity
QVQLVESVGGLVQAGGSLRLSCAASGRIFGSNAMGWYRPAPGKERELVAAISLSGTSTYYADSVKGRFTISRDNAKNTVYLQMNSLKPEDTAVYYCAAGLPGGTYFWGQGTQVTVSS | high polyreactivity
QVQLVESGAGLVQAGGRLRLSCAASGSIFWRYAMGWSIQAPGKERELVAAINYSTTRTYYADSVKGRFTISRDNAKNTVYLQMNSLKPVDTAVYYCAADSRVDEGEYWGQGTQVTVSS | high polyreactivity
QVQLLESWGGLVHAGGSLRLSCAASGRIIYRYAMGWSRQAPGNERELVAGISNAGGSTYYADSVKGRFTISRDNAKNTVYLQMNSLKPEDTAVYYCATGPSYRYDKGGGRSRYYYWGQGTQVTVSS | high polyreactivity
QVQLVESGGGLVQAGGSLRLSCAASGITFYRYAMGWYREAPGKERELVAAISRSGGGTHYADTVKGRFTISRDNAMNTVYLQMYCLKPEDTAVFYCAASAYSYDYWGQGNQVTVSS | high polyreactivity
QVQLVESGGGLVQAGGSLRLSCAASGRTFPGYAMGWYRQAPGKERELVATITGNGGSTYYADSVKGRFTISRDNAKNTVYLQMNSLKPDDTAVYYCAAGRRRPYVRAYSGTDYWGQGTQVTVSS | low polyreactivity
QVQLVESGGGLVQAAGSLRLSCAASGRILDFYDMGWYRQAPGKERELVAAITSGTSTYYADSVKGRFTISRDNAKNTVYLQMNSMKPEDTAVYYCAAAHVPVGQYVYWYDYWGQGTQVTVSS | low polyreactivity
QVQLVESGGGLVQAGGSLRLSCAASGLIFSYYTMGWYRQAPGKERELVAAISSAGGSTYYADSVKGRFTISRDNAKNTVYLQMNSLKPEDTAVYYCAARYSGRPYGPPGYLWKDYYWGQGTQVTVSS | high polyreactivity
QVQLVESGGGLVQAGGSLRLSCAASGSIFKVYAMGWYRQAPGKERELVAAITGSGGSTYYADSVKGRFTISRDNAKNTVYLQMNSLKPEDTAVYYCNTDYYYSGYFRRFDYWGQGTQVTVSS | high polyreactivity
QVQLVESGGGLVQAGGSLRLSCAASGGIFVPNAMGWNRQAPGQEREFVARISFSGVSTYYADSVKGRFTISRDNAKNSVYLQLNSLKPEDTAVYYCACDKRARLGAMGYWGQGTQVTVSS | low polyreactivity
QVQLVESGGGLVQAGGSLRLSCAASGSTFGRYAMGWYRQAPGKEREMVAAISQRGGSTYYADSVKGRFTISRDYAKNTVYLQMNSLKPEDTAVYYCAAYYTRIRNHYGYWGQGTQVTVSS | high polyreactivity
QVQLVESGGGLVQAGGSLRISCAASGFIIFEYDMGWYRQAPGKERDFVAAINFSGGSTYYADSEKGRFTISRDNAKNTVYLQMNSLKPEDTAVYYCAADVVRYYYTYDYWGQGTQVTVSS | low polyreactivity

Sequence | polyreactivity (PSR sort gate)
QVQLVESGGGLVQAGGSLRLSCAASGRIFIRYAMGWYRQAPGKERELVAVITTGGSTNADSVKGRFTISRDNAKNTVYLQMNSVKPEDTAVYYCNAKVRVYTRGYFRYWYDYWGQGTQVTVSS | high polyreactivity
QVQLEESGGGLVQAGGSHRLSCAASGQIFRHYAMGWYRQAPGKEREFVAAITGSGGNTYYADSLKGRFTISRDNAKNTVYLQMNSLKPEDTAVYYCAVRAYPSYPRGVYAYYYWGQGTQVTVSS | high polyreactivity
QVQLVESGGGLVQAGGSLRLSCAASGRTFSGYAMGWYRQAPGKERELVAAIRLSGGSTYYADSVKGRFTISRDNAKNTVYLQMNSLKPEVTAVYYCARYHGFGYDYWGQGTQGTVSS | low polyreactivity
QVQLVESGGGLVQAGGSLRLSCAASGSIFRKNAMGWYRQAPGKERELVAAITYRTGSTYYADSVKGRFTISRDNAKNTVYLQMNSLKPEDTAVYYCAAQTWGSGYGHIGRRRHDYWGQGTQVTVSS | high polyreactivity
QVQLVESGGGLVQAGGSLRLICAASGSTFYPNAMGWYRPAPGKERELVAAITSAGSTYYADSVKGRFTISRDNAKNTVYLQMNSLKPEDTAVYYCAKRRASRYDWGQGTQVTVSS | high polyreactivity
QVQLVESGGGLVQAGGSLRLSCDASGRIFSPNTMGWYRQAPGKERELVAAISRGGSTYADSVKGRFTISRDNAKITVYLQMNSLKPEDTAVYYCNARYGRYYGAYEYWGQGTQVTVSS | high polyreactivity
QVQLVESGGGLVQAGGSLRLSCAASGSTFVINAMGWYRQAPGKERELVAAISYSGDSTYADSVKGRFTISRDNEKNTVYLQMNSLKPEDTAVYYCAKYQYDYYTYDYWGQGTQVTVSS | low polyreactivity
QVQLVESGGGLVQAGGSLRLSCAASGAMGWYRQAPGKERELVAAITQSGGSTRYADSVKGRFTISRDNAKNTVYLQMNSLKPEDTAVYYCKAEDPREWDPYYQDGFDFWGQGTQVTVSS | low polyreactivity
QVQLVESGGGLVQAGGSLRLSCAASGITFAYYAMGWYRQAPGKERELVAAIRGGTNTYYADSVKGRFTISRDNAKYTVYLQMNSLKPEDTGVYYCAVRLYLEMDYWGQGTQVTVSS | high polyreactivity
QVQLVESGGGLVQAGGSLRLSCAASGNIFRNNAMGWYRQAPGKERELVAAISRGGSTYYADSVKGRFTISRDNAKNTVYLQMNSLKPEDTAVYYCNKYSSRAYNYWGQGTHVTVSS | high polyreactivity
QVQLEESGGGLVQAGGSLRLSCAASGITFFWNAMGWYRQAPGTERELVAVISSGGSTKYSDSVKGRFTISRDNAKNTVYLQMNSLKPEDTAVYYCAAAVRVGTRQYGYWGQGTQVTVSS | high polyreactivity
QVQLVESGGGLVQAGGSLRLSCAASGSTFDTYAMGWYRQAPGKERELVAAISRSGTSTYYADSVKGRFTISRDNAKNTVYLQMNSLKPEDTAVYFCNNPWYSYRYGGVGYGYWGQGTQVTVSS | low polyreactivity
QVQLVESGGGLVQAGGSLRLSCAASGSILAGYAMGWYRQAPGKERELVAAITSGGGSTYYADSVKGRFTISSDNAKITVYLQMNSLKAEDTAVYYCARDSGYYYDEYYYWGQGTKVTVSS | low polyreactivity
QVQLVESVGGIVQAGGSLRLSCAASGRIFGTNTMGWYRQAPGKERELVAGISSSGDSTYYADSVKGRFTISRDNAKNTVYLQMNSLKPEDTAVYYCNVYDYPTYDYWGQGTQVTVSS | low polyreactivity
QVQLVESGGGLVQAGGSLRLSCAASGRTFGPYAMGWYRQAPGKEREFVAAMSYSGGSTYYADSVKGRFTISRDTAKNTVFLQINSLKPEDTAVYYCAVDIDSNSGTRDYWGQGTQVTVSS | low polyreactivity
QVQLQESGGGLVQEGGSLRLSCAASGNISPPADMGWYRPAPGKERELVASIGTGGTTNYADSVKGRFTISRDNAKNTVYLQMNSLKPDDTAVYYCAAVRYEYNPYDYWGQGTQVTVSS | low polyreactivity
QVQHVESGGGLVQAGGILRFSSPASGGTVNINAMGWYIQAPGKERELFADISYSDGTTDYADSVKGRFTISRDNAKNTVYLQMNSLKPEDTAVYYCAAYYYYYSGFGQRSYSWGQGTNVTVSS | low polyreactivity
QVQLLESGGGLVQAGGSLRLSCAASGRTFYRTAKGWYRQAPGKERELVASITRSGNTNYADSVKGRFTISRDNAKNTVYLQMNSLKPEDTAVYYCAARPWLRNKYDYWGQGTQVTVSS | high polyreactivity
QLQLVESGGGLVQAGGSLRLSCAASGSNISYYAMGWSRQAPGKERELVAAISKRGASTYYADSVKGRFTISRDKAKNTVFLQMNSLKPEDTAVYYCAAYRQGSAYDYWGQGTQVTVSS | high polyreactivity
QVQLVESGGGLVQAGGSLRLSCAASGRTFRPYAMGWYRQAPGKERDLVAAIDSSGTSTYYADSVKGRFTISRDNAKKTVYLKMNSLKPEDTAVYYCAKAWPDHWYSRYDYWGQGTQVTVSS | low polyreactivity
QVQLVESGGGLVQAGGSLRLSCAASGSTFYYYAMGWYRQAPGKEREFVASISSRGTSTYYADSVKGPFTISRDNAKNTVYLQMNSLKPEDTAVYYCAARGWGPTRAYDYWGQGTQVTVSS | high polyreactivity
